Columns and labels:
[1] = Specific activity of ribonucleoside diphosphate conversion enzyme solutions (TLC, UV 260 nm); type: biochemical; conditions: 1 mM uridine diphosphate, 30° C., pH 7.0, with the co-substrate of each enzyme
Method: Reaction solution (2) was prepared by adding 10 μL of 1 M sucrose aqueous solution and 10 μL of sucrose synthase aqueous solution (D7-1) to 1 mL of aqueous solution R (50 mM phosphate buffer (pH of 7.0) containing 100 mM sodium chloride, 10 mM magnesium chloride, and 1 mM uridine diphosphate). Three such reaction solutions (2) were prepared and allowed to react at 30° C. for 5 minutes, 10 minutes, and 15 minutes, respectively. As for the amount of compound (C-7) as the reaction product (uridine diphosphate-glucose), the reaction product was developed on TLC (PEI-Cellulose plate available from Sigma-Aldrich Corporation, hereinafter the same) (developing solvent: an aqueous solution containing 1 M LiCl and 1 M formic acid, hereinafter the same), and detected with a UV light (260 nm). The specific activity of sucrose synthase aqueous solution (D7-1) was calculated to be 0.3 U/μL from the relationship between the yield of compound (C-7) and the reaction time.
Reaction solution (3) was prepared by adding 0.1 mg of reduced thioredoxin and 10 μL of ribonucleotide diphosphate reductase aqueous solution (D6-1) to 1 mL of aqueous solution R. Three such reaction solutions (3) were prepared and allowed to react at 30° C. for 5 minutes, 10 minutes, and 15 minutes, respectively. As for the amount of compound (C-6) as the reaction product (deoxyuridine diphosphate), the reaction product was developed on TLC and detected with a UV light (260 nm). The specific activity of ribonucleotide diphosphate reductase aqueous solution (D6-1) was calculated to be 0.3 U/μL from the relationship between the yield of compound (C-6) and the reaction time.
Reaction solution (4) was prepared by adding 10 μL of 1 M monopotassium phosphoenolpyruvate aqueous solution (available from Wako Pure Chemical Industries, Ltd.) and 10 μL of pyruvate kinase aqueous solution (D4-1-1) to 1 mL of aqueous solution R. Three such reaction solutions (4) were prepared and allowed to react at 30° C. for 5 minutes, 10 minutes, and 15 minutes, respectively. For the amount of compound (C-4) as the reaction product (uridine triphosphate), the reaction product was developed on TLC and detected with a UV light (260 nm). The specific activity of pyruvate kinase aqueous solution (D4-1-1) was calculated to be 0.3 U/μL from the relationship between the yield of compound (C-4) and the reaction time.
Reaction solution (5) was prepared by adding 10 μL of nucleotidase aqueous solution (D3-1) to 1 mL of aqueous solution R. Three such reaction solutions (5) were prepared and allowed to react at 30° C. for 5 minutes, 10 minutes, and 15 minutes, respectively. For the amount of compound (C-3) as the reaction product (uridine monophosphate), the reaction product was developed on TLC and detected with a UV light (260 nm). The specific activity of nucleotidase aqueous solution (D3-1) was calculated to be 0.3 U/μL from the relationship between the yield of compound (C-3) and the reaction time.
Reaction solution (6) was prepared by adding 1 mg of polyuridine (product name “polyuridylic acid potassium salt” available from Sigma-Aldrich Corporation) and 10 μL of polyribonucleotide nucleotidyltransferase aqueous solution (D5-1) to 1 mL of aqueous solution R. Three such reaction solutions (6) were prepared and allowed to react at 30° C. for 5 minutes, 10 minutes, and 15 minutes, respectively. […]

[2] = Enzyme activity ratio (Y1)=Vmax1/Vmax2 of conversion enzyme (Lineweaver-Burk); type: biochemical; conditions: each
Text: In the present invention, in the case where ribonucleoside diphosphate conversion enzyme (D) is used, an enzyme activity ratio (Y1) calculated from the following formula (1) using enzyme activity Vmax1 and enzyme activity Vmax2 described below is preferably not lower than 0.1 in terms of efficient polysaccharide production and efficient use of the substrate (ribonucleoside diphosphate-monosaccharide (A)). Enzyme activity ratio (Y1)=Vmax1/Vmax2 (1) • Enzyme activity Vmax1: the enzyme activity of ribonucleoside diphosphate conversion enzyme (D) on ribonucleoside diphosphate. • Enzyme activity Vmax2: the enzyme activity of ribonucleoside diphosphate conversion enzyme (D) on ribonucleoside diphosphate-monosaccharide (A).
An enzyme reaction solution (II) containing specific amounts of substrate (ribonucleoside diphosphate or uridine diphosphate-monosaccharide (A)), enzyme (polysaccharide synthase (B) or ribonucleoside diphosphate conversion enzyme (D)), pH adjuster (K), and water is prepared, which is adjusted to a specific temperature and a specific pH. • Phosphate-containing compound (F) is added, if necessary, to the enzyme reaction solution (II) if the enzyme to be used is (D4). Reducing agent (d6) is added if the enzyme is (D6), and raw material (d7) of nucleotide sugar is added if the enzyme is (D7).
After preparation of the enzyme reaction solution (II), it is allowed to stand for enzyme reaction for 1 minute to 100 hours. Next, the amount (X) of the reaction product obtained from the reaction is measured to determine the initial enzyme reaction velocity v. Likewise, the initial enzyme reaction velocity v is determined, using the enzyme reaction solution (II) having a different substrate concentration. A Lineweaver-Burk plot is generated from the above-obtained initial enzyme reaction velocity v and substrate concentration, and the enzyme activity Vmax is determined therefrom.
The enzyme activity Vmax (M/s) is determined using Lineweaver-Burk plot derived from Michaelis-Menten kinetics. […]
In the above measurement, the result determined using ribonucleoside diphosphate conversion enzyme (D) as an enzyme and ribonucleoside diphosphate as a substrate represents Vmax1, and the result determined using ribonucleoside diphosphate conversion enzyme (D) as an enzyme and ribonucleoside diphosphate-monosaccharide (A) as a substrate represents Vmax2. In the case where two or more types of ribonucleoside diphosphate-monosaccharide (A) are used, Vmax2 is determined for each ribonucleoside diphosphate-monosaccharide (A). The enzyme activity ratio (Y1) is also determined for each type from formula (1) using each Vmax2. […]
Enzyme reaction solution (II-1) was prepared by adding the following to 1 mL of aqueous solution P (50 mM phosphate buffer (pH of 7.0) containing 100 mM sodium chloride and 10 mM magnesium chloride): a substrate (uridine diphosphate) to a concentration of 0.5 mM in the solution, sucrose (available from Wako Pure Chemical Industries, Ltd.) to a concentration of 100 mM in the solution, and 1 μL of sucrose synthase aqueous solution (D7-1). […] Enzyme reaction solution (II-1) was allowed to stand at 30° C. for enzyme reaction for 30 minutes while measuring the amount of the reaction product (uridine diphosphate-glucose) using HPLC at 5-minute intervals, and the initial enzyme reaction velocity v was calculated. […]

[3] = Vmax2 substrates UDP-glucuronic acid, -N-acetylglucosamine, -N-acetylgalactosamine, -glucose, -mannose, -glucosamine
[4] = Vmax2 substrates uridine diphosphate-glucuronic acid and uridine diphosphate-N-acetylglucosamine

B1: arginine kinase aqueous solution (D4-1-3): arginine kinase, SEQ ID NO: 9, derived from Toxoplasma gondii (protein, listed as Toxoplasma gondii)
chain: MLSAASPALARKSFDFRGSALRHFSSSGGHRGSSDTKISPGHSDKSGEPLDLPVFTSTKQIATIGPASWDYEEIERLFLAGVDVFRLNMSHGLLTEKHQQLLHVRHLEKVYKHPIAVLADLPGPKFRLGVFNNDEATLETGKSFILDSSTQPGDASRVQLPHPEILSVLRPDDIVLMDDGKVKLRVTEVFADTTALSRGLGDIESVSHTASPGSSVVRAPAVRCTVLVGGRISSKKGVNVPSARLPISALSARDRELARTVASWGVDWIALSFVQSADDVHELRRELREAAEAAGSTTAQYAAEQNRSESHVDRGDASGAGCRIRPDISVMVKIEKPIALENIAEIVAAADGIMVARGDLGVELPNIAWLPRVQKRLVSLCREAGKPVVVATQMLESMMQAPLPTRAEVSDVANAVYDGADAVMLSGETAAGNAPARVACMQRLGIEGVENDPSFWELEDQRRQARLRAAERCASTGTSALRVPRASKGREQELEKGSELQGESRDRTEEILSRFLPGRREHLAFSEADRQGNTSGDTNQGTSKTEQGADESDAWVEHTAAAVARQSGAKAIVVFGENEALLQRLATLRPTAPVLAVTECVHTARRLKMYWGIYPVLLEAEDQANVESRARRPASLDDQLRLACEFARKEKFATESTDNLVVLGRLPGGRENGTNSDKTTARLTRPILTVCTLESGR
modifications: aqueous solution
specific activity [1]: 0.3 U/μL | enzyme activity ratio (Y1) of each type [2, 3]: ≥ 10

B2: ribonucleotide diphosphate reductase aqueous solution (D6-1): ribonucleotide diphosphate reductase, SEQ ID NO: 3, derived from Corynebacterium glutamicus (protein, listed as Corynebacterium glutamicum)
chain: MAADSDLSVHDAYLKEHVAPVKAINWNSIPDSKDLEVWDRLTGNFWLPEKVPVSNDIKSWGTLNEVEKAATMRVFTGLTLLDTIQGTVGAISLLPDADSLHEEAVLTNIAFMESVHAKSYSNIFMTLASTAEINDAFRWSEENENLQRKAKIILSYYEGDDPLKRKIASVILESFLFYSGFYLPMYWSSHSKLTNTADVIRLIIRDEAVHGYYIGYKYQKAVAKETPERQEELKEYTFDLLYDLYDNETQYSEDLYDDLGWTEDVKRFLRYIANKALNNLGYEGLFPADETKVSPNILSALSPNADENHDFFSGSGSSYVIGKAENTEDDDWDF
specific activity [1]: 0.3 U/μL | enzyme activity ratio (Y1) of each type [2, 4]: ≥ 10

B3: nucleotidase aqueous solution (D3-1): nucleotidase, SEQ ID NO: 5, derived from Escherichia coli (protein, listed as Escherichia coli)
chain: MKQSHFFAHLSRLKLINRWPLMRNVRTENVSEHSLQVAMVAHALAAIKNRKFGGNVNAERIALLAMYHDASEVLTGDLPTPVKYFNSQIAQEYKAIEKIAQQKLVDMVPEELRDIFAPLIDEHAYSDEEKSLVKQADALCAYLKCLEELAAGNNEFLLAKTRLEATLEARRSQEMDYFMEIFVPSFHLSLDEISQDSPL
specific activity [1]: 0.3 U/μL | enzyme activity ratio (Y1) of each type [2, 4]: ≥ 10

B4: apyrase aqueous solution (D2-1): apyrase, SEQ ID NO: 7, derived from xenopus (protein, listed as Xenopus laevis)
chain: MKSPQVECKESMSPLRISVAGLPVLASMTKTADPRFRPRWRAILLSGIAVAFLLLLLCYHRSSGPRIQVANPHNWRMVHQVAGELYNDTYPLTPPLRTPEGLRYHIAIIADLDTDSRSAKANTWVSYLKRGYLTLSSSGDHVAVEWEKEDIVLETHLAEKGRGMELSELIVFNGKLYSVDDRTGVVYRIEGSKAVPWVILTDGDGTVGKGFKAEWLAVKDEQLYVGGLGKEWTTTSGVVLNENPEWVKVIGPRGDTQHHNWVSNYNQLRSAAGIQPPGYLIHESAAWSDSLKSWFFLPRRASQEQYSEKEDEKRGSNILLRATPDFSDIKMSHVGTLNPTHGFSSFKFIPGTDDQIIVALKSEEDNGKVATYITAFTLDGRILLPETKVGNVKYEGIEFI
specific activity [1]: 0.3 U/μL | enzyme activity ratio (Y1) of each type [2, 4]: ≥ 10

B5: nucleoside diphosphate kinase aqueous solution (D4-1-2): nucleoside diphosphate kinase, SEQ ID NO: 8, derived from rat pancreas (protein)
chain: LSGIAVAFLLLLLCYHRSSGPRIQVANPHNWRMVHQVAGELYNDTYPLTPPLRTPEGLRYHIAIIADLDTDSRSAKANTWVSYLKRGYLTLSSSGDHVAVEWEKEDIVLETHLAEKGRGMELSELIVFNGKLYSVDDRTGVVYRIEGSKAVPWVILTDGDGTVGKGFKAEWLAVKDEQLYVGGLGKEWTTTSGVVLNENPEWVKVIGPRGDTQHHNWVSNYNQLRSAAGIQPPGYLIHESAAWSDSLKSWFFLPRRASQEQYSEKEDEKRGSNILLRATPDFSDIKMSHVGTLNPTHGFSSFKFIPGTDDQIIVALKSEEDNGKVATYITAFTLDGRILLPETKVGNVKYEGIEFI
modifications: Rat pancreas
specific activity [1]: 0.3 U/μL | enzyme activity ratio (Y1) of each type [2, 3]: ≥ 10

— patent US9670514B2, “Method for producing polysaccharide” (SANYO CHEMICAL INDUSTRIES, LTD., priority 2011, dated 2017)
